# Laboratory results as given in PMC6294937, “Structure and architecture of immature and mature murine leukemia virus capsids” (Proceedings of the National Academy of Sciences of the …, 2018).
# Values joined by “and” are separate entries in the source; they are usually repeats but may differ in a detail not shown here. Equal entries are not always repeated.
# B1: MLV CA (capsid) protein in mature virus particles (mature CA lattice) (natural protein)
# chain: PLRAGGNGQLQYWPFSSSDLYNWKNNNPSFSEDPGKLTALIESVLITHQPTWDDCQQLLGTLLTGEEKQRVLLEARKAVRGDDGRPTQLPNEVDAAFPLERPDWDYTTQAGRNHLVHYRQLLLAGLQNAGRSPTNLAKVKGITQGPNESPSAFLERLKEAYRRYTPYDPEDPGQETNVSMSFIWQSAPDIGRKLERLEDLKNKTLGDLVREAEKIFNKRETPEEREERIRRETEEKEERRRTEDEQKEKERDRRRHREMSKLL
# notes: CA (capsid) protein of murine leukemia virus, the product of cleavage of Gag by the viral protease; 263 residues (CA-CTD printed as residues 132-263); numbers count on: the CA protein; also called mature MLV CA; mature CA hexamer; source: HEK293T, transfected with the infectious clone pRR390; in purified mature virus particles, fixed with 1% paraformaldehyde
# Experiments:
# [1] = target: MLV Gag polyprotein in immature virus particles (immature CA lattice) (murine leukemia virus (MLV)); assay: cryo-EM structure; cryo-ET and subtomogram averaging of the CA layer in purified, fixed immature MLV particles (PR D32L); 79 particles, sixfold symmetry, 6.6 Å; crystal structures fitted as rigid bodies
# [2] = target: truncated MLV CA-CTD (residues 132–218, CA-CTDΔCAH) (murine leukemia virus (MLV)); assay: crystal structure; X-ray, SAD with cobalt, 1.89 Å, space group P3(1)21; crystals grown at 20 °C, 37 mg/mL protein, 4% PEG 3350, 0.1 M Hepes pH 8.2, 5 mM each CoCl2, CdCl2, MgCl2, NiCl2
# [3] = target: the molecule itself; assay: cryo-EM structure; cryo-ET and subtomogram averaging of the CA lattice in purified, fixed mature MLV particles; 134 virions; hexamer 7.2 Å, pentamer 8.6 Å; repeated with a second preparation (8.1 Å); crystal structures fitted as rigid bodies
molecule,measurement,setting,value
MLV Gag polyprotein in immature virus particles (immature CA lattice) (natural protein),stoichiometry N,[1],6
"truncated MLV CA-CTD (residues 132–218, CA-CTDΔCAH) (domain or fragment)",stoichiometry N,[2],2
B1,stoichiometry N,[3],6 and 5
